The target in test [1] is truncated β1 adrenergic receptor (M. gallopavo β114-E130W, without an intact ICL3) (M. gallopavo) (UniProt P07700).
Test [2] has as its target β1 adrenergic receptor with an intact ICL3 (M. gallopavo β114E130WIC3) (M. gallopavo) (UniProt P07700).

“mini Gs (engineered GTPase domain of the Gαs protein), construct R414, I208A (domain or fragment)”: the GDP release (decay of BODIPY FL GDP fluorescence) after addition of isoprenaline, 20 °C in test [1] and in test [2] was 60 s in each case.

The record behind these values is publication PMC11487556.
